{
  "source": "paper PMC9715571",
  "about": "(Cell Research, 2022)",
  "binders": {"B1": {"name": "WTAP^1–273 (domain or fragment, human, UniProt Q15007 1-273, looked up)", "chain": "MTNEEPLPKKVRLSETDFKVMARDELILRWKQYEAYVQALEGKYTDLNSNDVTGLRESEEKLKQQQQESARRENILVMRLATKEQEMQECTTQIQYLKQVQQPSVAQLRSTMVDPAINLFFLKMKGELEQTKDKLEQAQNELSAWKFTPDSQTGKKLMAKCRMLIQENQELGRQLSQGRIAQLEAELALQKKYSEELKSSQDELNDFIIQLDEEVEGMQSTILVLQQQLKETRQQLAQYQQQQSQASAPSTSRTTASEPVEQSEATSKDCSRL", "notes": "probably the baculovirus-insect cell system used for the other complexes; also called WTAPA; WTAPB"}, "B2": {"name": "WTAP^130–241 (domain or fragment, human, UniProt Q15007 130-241, looked up)", "chain": "QTKDKLEQAQNELSAWKFTPDSQTGKKLMAKCRMLIQENQELGRQLSQGRIAQLEAELALQKKYSEELKSSQDELNDFIIQLDEEVEGMQSTILVLQQQLKETRQQLAQYQQ", "notes": "WTAP, human, residues 130-241; density assigned for residues 150-241; also called WTAP alone; WTAP^150–241 (assigned density); source: Escherichia coli expression system"}},
  "key": {"METTL14": {"biological_target": "T1, METTL14 (human, UniProt Q9HCE5 1-456)", "T1 construct": "METTL14, human; also called MTC core subunit; source: baculovirus-insect cell expression system, co-expressed, purified", "T1 sequence (looked up)": "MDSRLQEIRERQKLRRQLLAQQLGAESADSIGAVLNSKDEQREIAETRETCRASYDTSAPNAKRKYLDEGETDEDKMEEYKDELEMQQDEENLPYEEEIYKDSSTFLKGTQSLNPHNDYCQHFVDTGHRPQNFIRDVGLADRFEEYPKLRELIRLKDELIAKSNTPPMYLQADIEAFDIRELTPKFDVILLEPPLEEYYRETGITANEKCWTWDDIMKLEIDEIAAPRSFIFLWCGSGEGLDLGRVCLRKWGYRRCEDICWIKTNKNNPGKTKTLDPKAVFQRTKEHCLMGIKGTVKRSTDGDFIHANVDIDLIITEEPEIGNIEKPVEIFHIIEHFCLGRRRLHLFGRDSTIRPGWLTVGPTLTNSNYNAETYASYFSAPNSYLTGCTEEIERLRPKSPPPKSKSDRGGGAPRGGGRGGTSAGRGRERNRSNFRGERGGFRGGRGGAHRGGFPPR", "assay": "SEC; gel filtration analysis of the purified, co-expressed METTL3–METTL14–WTAP 1-273–VIRMA 381-1486 complex", "conditions": "both partners purified"}, "[1]": {"biological_target": "the molecule itself", "assay": "cryo-EM structure; METTL3–METTL14–WTAP 1-273–VIRMA 381-1486 complex, gradient fixation, 3.1 Å; only WTAP 171-237 and VIRMA 381-1292 seen"}, "VIRMA^381–1486": {"biological_target": "T2, VIRMA^381–1486 (human, UniProt Q69YN4 381-1486)", "T2 construct": "probably the baculovirus-insect cell system used for the other complexes", "T2 sequence (looked up)": "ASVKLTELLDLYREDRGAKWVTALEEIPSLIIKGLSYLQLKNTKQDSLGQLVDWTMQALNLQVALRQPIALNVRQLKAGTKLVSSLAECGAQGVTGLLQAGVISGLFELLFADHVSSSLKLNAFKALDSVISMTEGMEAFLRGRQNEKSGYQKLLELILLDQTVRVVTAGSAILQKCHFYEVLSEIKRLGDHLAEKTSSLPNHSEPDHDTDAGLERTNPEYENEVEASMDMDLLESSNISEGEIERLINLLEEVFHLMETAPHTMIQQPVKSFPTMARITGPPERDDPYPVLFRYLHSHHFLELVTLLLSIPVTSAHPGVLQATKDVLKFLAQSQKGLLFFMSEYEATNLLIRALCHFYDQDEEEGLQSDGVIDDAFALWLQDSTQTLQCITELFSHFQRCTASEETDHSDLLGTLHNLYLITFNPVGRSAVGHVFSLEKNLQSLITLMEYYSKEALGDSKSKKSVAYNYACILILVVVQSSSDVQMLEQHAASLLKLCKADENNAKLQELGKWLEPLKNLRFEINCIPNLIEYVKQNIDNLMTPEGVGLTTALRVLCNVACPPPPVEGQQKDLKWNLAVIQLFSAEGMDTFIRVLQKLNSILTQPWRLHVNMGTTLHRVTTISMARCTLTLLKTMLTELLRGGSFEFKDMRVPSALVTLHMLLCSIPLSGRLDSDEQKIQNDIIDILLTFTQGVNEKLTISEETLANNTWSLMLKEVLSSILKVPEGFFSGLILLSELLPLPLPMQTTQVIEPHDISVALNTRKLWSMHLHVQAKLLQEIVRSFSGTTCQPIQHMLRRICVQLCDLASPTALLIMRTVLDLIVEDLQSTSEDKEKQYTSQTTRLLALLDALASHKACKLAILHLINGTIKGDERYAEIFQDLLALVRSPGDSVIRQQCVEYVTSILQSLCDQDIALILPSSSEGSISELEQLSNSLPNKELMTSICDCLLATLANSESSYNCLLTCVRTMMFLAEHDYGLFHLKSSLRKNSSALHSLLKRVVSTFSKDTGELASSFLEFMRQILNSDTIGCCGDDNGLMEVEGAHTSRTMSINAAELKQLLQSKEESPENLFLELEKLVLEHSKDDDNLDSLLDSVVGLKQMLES", "assay": "cryo-EM structure; METTL3–METTL14–WTAP 1-273–VIRMA 381-1486 complex, gradient fixation, 3.1 Å; only WTAP 171-237 and VIRMA 381-1292 seen", "conditions": "both partners purified"}, "METTL3": {"biological_target": "T3, METTL3 (human, UniProt Q86U44 1-580)", "T3 construct": "METTL3, human; The same molecule is used for the co-purifications, the gel filtration and the cross-linking; also called MTC core subunit; source: baculovirus-insect cell expression system, co-expressed, purified", "T3 sequence (Q86U44 whole entry)": "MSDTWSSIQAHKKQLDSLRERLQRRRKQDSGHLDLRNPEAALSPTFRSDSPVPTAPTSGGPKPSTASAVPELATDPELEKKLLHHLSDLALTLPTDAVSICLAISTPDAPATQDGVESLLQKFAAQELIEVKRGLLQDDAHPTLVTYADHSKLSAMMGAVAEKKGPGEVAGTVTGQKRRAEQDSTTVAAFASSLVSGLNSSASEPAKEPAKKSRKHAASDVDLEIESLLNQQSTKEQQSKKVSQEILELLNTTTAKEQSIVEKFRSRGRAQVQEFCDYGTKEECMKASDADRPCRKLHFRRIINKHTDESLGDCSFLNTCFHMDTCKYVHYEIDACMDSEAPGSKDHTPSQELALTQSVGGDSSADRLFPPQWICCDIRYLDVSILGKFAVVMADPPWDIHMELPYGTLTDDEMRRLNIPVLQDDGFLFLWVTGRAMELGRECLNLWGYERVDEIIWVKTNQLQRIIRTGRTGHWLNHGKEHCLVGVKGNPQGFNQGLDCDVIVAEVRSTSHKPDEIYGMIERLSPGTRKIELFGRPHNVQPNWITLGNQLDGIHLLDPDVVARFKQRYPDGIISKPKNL", "assay": "cross-linking; in vitro CXMS of the quaternary M–M–W–V complex with BS3, FDR < 5%", "conditions": "both partners purified"}, "[2]": {"biological_target": "the molecule itself", "assay": "crystal structure; WTAP 130-241 alone, 2.40 Å"}},
  "data": [
    {"binder": "B1", "values": [
      {"measurement": "binding result", "setting": "METTL14", "result": "binds"},
      {"measurement": "stoichiometry N", "setting": "[1]", "result": 2},
      {"measurement": "stoichiometry N", "setting": "VIRMA^381–1486", "result": "2 WTAP:VIRMA"},
      {"measurement": "binding result", "setting": "METTL3", "result": "binds"}
    ]},
    {"binder": "B2", "values": [
      {"measurement": "stoichiometry N", "setting": "[2]", "result": 2}
    ]}
  ]
}
